Measured values published in the DeepSol protein solubility set.

Experiment: soluble on expression in E. coli; label from the status in PepcDB or PDB records

| Sequence | soluble on expression in E. coli |
| --- | --- |
| MKNEDGIINILLMGTDARPNEDSSRSDAMMILTIDNKHNDIKLTSLARDSYVDIPGHGKQKLTHAYAYGQADLLIQTIEENFNIDIQNYACVNFESFMYIIDAIGGVEVTVEKGEIRELNKFIPETYKWNKSDDKGSIQYIRNSGKQTLNGYQALSFARIRHNDTAFARDGRQRQIIQAIIKKTETLPVTKYPGLLDAVLPYVKTNMKPNAILSLGAQVLKMGDLNIKQFEFPIDDEIHSTGGIYGKAGWVLRFDPDTLDILHDFIFNDIEFKQLEHHHHHH | soluble |
| MKNEELDFDITVFDEGKADLKAAAIYNVPFFPKGAKADEIYTHIKAQIASMLEVKYIDSKVVSISGEKGDFTVNDEQGLGIKADYIIVATGANKSDIKELEDFVIPHELMPKPNKFCFKHHGRQIIKEGIYAAGLASGVTTMVACAMGSANEAACAILSDIKGAVSVYHDTPLEHHHHHH | not soluble |
| MKNIGVNINSCKDPDGTIRKYVEKVIKEEKKDVQVKFYDELNYFDEVCKTKPDFFIAFGGDGTILNAARNLVSCGIPIFSVNIGHLGFLSSIEFKDFKDAIHKIFKGEYFFQERTMLKCSFIKGNSKKVFYSLNEVVLYKGNMAKILKYNIDVDDKFYMGFKSDGIIISTPTGSTAYNLSAGGPIIYPNLDLISLTPICPQGPYAGTIVLDGKSNITISGIDANENVFITVDGRQPVDVKGVSFIEISKLNYKCKLLKLKDYNYFEVLRKKIILRTEECEGDKYMAGDPLEHHHHHH | soluble |
| MKNKAFGQIMDDAENPGFFKILRSADLSSEIMRGIPLNFIKSISEEELSAKMLLKVSWGSSWPIKICRNPSFYFMEKKGWDQFLSDNGLGNDEFLTFTHQGNMCFTVDIYQIDGKELLTPRRSATIASSSGRNKREQRNNIYKDVKEEEDIESWSESSYPGHKTAESTGRRQRLSLSNKKAKETEKSKKKKMKVESISYDSQDDSLSLVPEFTLTIKKSYLIFLGIPKMFEELHMPTEATMFKIHDPEGKRSWDVMYKFSNNQTRFCAGWIRLAKELGLEIGDVCTFTLIKPTEMLVRVSK | soluble |
| MKNSKAILQVPGTMKIISAEIPVPKEDEVLIKVEYVGICGSDVHGFESGPFIPPKDPNQEIGLGHECAGTVVAVGSRVRKFKPGDRVNIEPGVPCGHCRYCLEGKYNICPDVDFMATQPNYRGALTHYLCHPESFTYKLPDNMDTMEGALVEPAAVGMHAAMLADVKPGKKIIILGAGCIGLMTLQACKCLGATEIAVVDVLEKRLAMAEQLGATVVINGAKEDTIARCQQFTEDMGADIVFETAGSAVTVKQAPYLVMRGGKIMIVGTVPGDSAINFLKINREVTIQTVFRYANRYPVTIEAISSGRFDVKSMVTHIYDYRDVQQAFEESVNNKRDIIKGVIKISD | soluble |
| MKNSLCNSVSSVVKKLLEYGEDGTPVYVNELTALNQELRNLCADLLLQKGESPEEEAEILVTLFKGYDTMLFNFSSENEQVIQELLDRSMTVLEKLPASVLKCQLLLECFEQTGDEELIREAKKNIERVI | soluble |
| MKNVGFIGWRGMVGSVLMQRMVEERDFDAIRPVFFSTSQLGQAAPSFGGTTGTLQDAFDLEALKALDIIVTCQGGDYTNEIYPKLRESGWQGYWIDAASSLRMKDDAIIILDPVNQDVITDGLNNGIRTFVGGNCTVSLMLMSLGGLFANDLVDWVSVATYQAASGGGARHMRELLTQMGHLYGHVADELATPSSAILDIERKVTTLTRSGELPVDNFGVPLAGSLIPWIDKQLDNGQSREEWKGQAETNKILNTSSVIPVDGLCVRVGALRCHSQAFTIKLKKDVSIPTVEELLAAHNPWAKVVPNDREITMRELTPAAVTGTLTTPVGRLRKLNMGPEFLSAFTVGDQLLWGAAEPLRRMLRQLA | soluble |
| MKPDSNGVYAYDMKISKKLTMAYKNDNPAKHATPVDYDYKTQTWSKREPNQLMDCFQNYSFNHISDPGDANRMEDVLVVDGLHKRVISINGDMPGAPVVVPYMSEVWIRVSNQILMDSMTIHVHGIDKHGMWYMDGVAFVQQCPIQSTNKFEYRFIADNKGTHWYHGHMQTDRGDGIAGGFIVVDQNDTSVPTLDDRKRIVPSREYFFLLQDWATKVGEEAWMQLEDKTMKWMYGYDDFTKCWEPTRTSDGGNVGGAVPISAILLNDKGWYDHDIIKSQPFNLPLERFQIKPNEDILFRIVNGGVAQELMLYVEGHPMTVVAADGDEVVPMKVDRLIVFPGERYDILIKGLATPTKKSYRIQVETVQKYFFDWKEIPIVYGFGYIEYETDGLPEDKTTPNLMHPECTQNKKCTVLNCPFQEWMAQPNFTCISYDKLENPNPEKIEAEILQATQFNGGFEEHFINMHHDSQMDQFLFQFPWGIPYYHDGDMETISTSCSQTACANNSMSDLDTTCRCFYHLEHKLNNIVQITLYNMGLGGAMGTGYAHPFHLHGHHFYVMKVGWPSYNGSGFIDQMNQDIDCPGRDVSCNGKKWRNKDWLGGALEAMNTKNPTKRDTITLPVGGYITIRFRAVNPGWWFAHCHLELHLMGGTGYAYKVGDQNQIYMPPDNFPHDCGVFKVDKLPELRLPTQKSSNIPYTFIAVCLVLIIDRIFH | not soluble |
| MKPFCTVMANGEDITRTLMDYVLSIEITDEAEDKSDRITIELDDRARECDNGFLDIPLIGTIISVTLGYEGGKNRDMGAYLIDEISVSSPPQSLSVTGRAASMNTSYRTPKSQSYHQQTLGNIIQEIAERNGYTPKVDPALAKIVVRHIDQTSESDMAFATRLAEDYDAVAKPVDGKLVLAKRGEGKAITGETLPVVVIHEKLCSSWDFKYSARDEAGAANGLATEAGDDQKAAADAREPEEVEEGEDVIHMDESDAPNLPKAETEAKTPENQEQDEEKKGGVLASYHDIRTGEKKEVKVGKAPFHELKYTYHNQSEAVAAIAAYRNKSSRGKSSFSCDIGGDPFVQAEAKLVQEPPFRPYIPAEWRIKSVKHKLDKTGGYTTKIDCELFDETQEDAAGNVANTTPDKDDTLDPNAPPNACDEGEGVIHMDEEDR | not soluble |
| MKPLLDVLMILDAIEKEGSFAAASAKLYKTPSALSYTVHKLESDLNIQLLDRSGHRAKFTRTGKMLLEKGREVLHTVRELEKQAIKLHEGWENELVIGVDDTFPFSLLAPLIEAFYQHHSVTRLKFINGVLGGSWDALTQGRADIIVGAMHEPPSSSEFGFSRLGDLEQVFAVAPHHPLAQEEEPLNRRIIKRYRAIVVGDTAQAGASTASQLLDEQEAITVFDFKTKLELQISGLGCGYLPRYLAQRFLDSGALIEKKVVAQTLFEPVWIGWNEQTAGLASGWWRDEILANSAIAGVYAKSDDGKSAIQRKIIMTSLSFSCHFPPI | not soluble |
| MKPSLRIYRYPPPPSQRTPCALTIGNFDGVHLGHQAILARVRQEARARGLVPAVMTFEPHPREYFATLNRRPELAPTRISGLRDKLQALAAAGIEQVAVERFDARLAEMSANAFIEDLLVAGLQTRWLLVGEDFRYGHKRSGDIDLLREAGLAHGFEVCTLADITDRQGHRISSSEVRTALAVGDLDRAAQLLGQPFHISGHVIHGRKLGRELGFPTMNLRVAPRCATRSGIYVVRVLGLQDRPLPAVASLGVRPTVEDRGRVLLEAHLLDESLDAYGKLVRVEFLHKLRDEEKFADLPSLTAAIAQDAQNARAYFAVHGL | not soluble |
| MKPSSPSRSKGHAKARRKTREELNQEARDRKRQKKRRGHAPGSRAAGGNNTSGSKGQNAPKDPRIGSKTPIPLGVTEKVTKQHKPKSEKPMLSPQAELELLETDERLDALLERLEAGETLSAEEQSWVDAKLDRIDELMQKLGLSYDDDEEEEEDEKQEDMMRLLRGN | not soluble |
| MKPTERRILLGRIVGAFGVKGELKLESWTEPRSAIFRYQPWIVRTPSGQESVLSGVRGRDQGKNLIAVFPDITDRDTVEAMHGTEIYVARSALPPPKPDEYYWVDLEGLQVETVEGVKLGTVSHLFSTGSNDVVVVRGDRERMIPFVLPEYVKSVDFEANLIVVDWDPDFLEHHHHHH | soluble |
| MKPTLFLLAAGMGSRYGGLKQLDGLGPNGETIMDYSIYDAINAGFGKLVFVIRKDFEQDFREKIISKYEGHIPCELVFQSIDDLPEGFTCPADRTKPWGTNHAVMMGADVISEPFAVINCDDFYGRDSFQVMGKFLSALPENSKNVYSMVGFRVGNTLSESGTVSRGICSTDANNLLTSVVERTKIQRLDGEVKYIDDNGEWTATPDTTPVSMNFWGFTPDYFAYSEEFFKTFLSDPKNMENLKSEFFIPLMVDKLINDGTATVEVLDTTSKWFGVTYPEDRQSVVDKIQALVDAGEYPAKLF | not soluble |
| MKPVKVGICGLGTVGGGTFNVLQRNAEEIARRAGRGIEVAQIAVRTPNPNCQIAGTPTTSDVFAVATNPEIDIVVELIGGYTIARDLVLKAIEHGKHVVTANKALIAVHGNEIFAKAREKGVIVAFEAAVAGGIPVIKAIREGLSANRINWVAGIINGTGNFILTEMREKGRTFPDVLAEAQALGYAEADPTFDVEGIDAAHKLTILASIAFGIPLQFDKAYTEGITKLTTADVNYAEALGYRIKHLGVARSTAQGIELRVHPTLIPADRLIANVNGVMNAVMVNGDASGSTLFYGAGAGMEPTASSVVADLVDVVRAMTSDPENRVPHLAFQPDSLSAHPILPIEACESAYYLRIQAKDHPGVLAQVASILSERGINIESIMQKEVEEHDGLVPMILLTHRVVEQRINDAIQALEALQDVVGPVVRIRVEHLN | not soluble |
| MKQIKNTHYEGERPLFASHGLYLEEVTIHAGESALKECSDIEAVNCRFEGKYPFWHNDGFVVKNCLFTEGARAALWYSRNLKMKDTLVEAPKMFREMDGVELENVQLPNALETLWYCRNVELNNVKIDKGDYLFIHGEDIRIKNFVLNGNYSFQYCKNVEIRHAEIHSKDAFWNTENVTVYDSVLDGEYLGWHSKNLRLVNCKISGTQPLCYAHDLIMENCTMADDADLAFEHSSVKATIKGPVHSVKNPRTGNIVAESFGTIILDENLKAPGNCELKLWDGLTCFD | soluble |
| MKQKEMIVMSILVKSVSFDDYRNTQLNEKCANFLQSAEMAKLQESQDHIEKVEALVFERDGLRVAQAIVVYKKSFRVFKKALLLHGPLLDYHSSCWFDREILEALILYLRKKNIATLSIHPYLTNLIRNEKLENIEVDKARDVLEVFETLGFEHSLDSEQSLVVNQMFVKSIESFASSDEILAAFSPSLKRDLKKFTALNVKTEELDEHQLDQFYDILSRTAERKGFSVHPLVYFQNLKKYFGKSAKFMLAYLDCPAYLAYLDENIQSFEAKIQDLKEGPQKKRTKGQIADAEDQLRSYYKRLEQFKSYQIKTDKLPLSAYLFMDYGPEIVSFYGGNDEAYLNFGGAVLLHWEMLKYAKSKSKKHFNFYGTIETEAASSGKGNFNFKRQFGGQLETLVGSFDKTLNPFYDILKKTLGKD | not soluble |
| MKQKIVLATGNKGKVKEMADVLSDFGFEVIAQTDLGIESPEETGLTFVENALLKARYASEKSGLPAIADDSGLVVSALNGAPGLYSARYAGEEGNDAKNREKLLAELAHIAQEQRQAKFVSCIVFLQHPTDPSPIIAEGECCGVIGFEEKGENGFGYDSLFFSPEQGCTFAELETAEKKKISHRAKALSVLKSKL | not soluble |
| MKQKNENAPRPGGAGRKPKADPAVFRYSISFNAIDHARFLALFDQSGMRTKAHFITARIFGEPFKVIKIDKAAVEYYTRLTALYSQYRGIAVNYNQVVKALNTNFSEKKALAFLYKLEKATIELADLNRQIIELTREFETRWLQR | not soluble |
| MKQKVVSIGDINVANDLPFVLFGGMNVLESRDLAMRICEHYVTVTQKLGIPYVFKASFDKANRSSIHSYRGPGLEEGMKIFQELKQTFGVKIITDVHEPSQAQPVADVVDVIQLPAFLARQTDLVEAMAKTGAVINVKKPQFVSPGQMGNIVDKFKEGGNEKVILCDRGANFGYDNLVVDMLGFSIMKKVSGNSPVIFDVTHALQCRDPFGAASGGRRAQVAELARAGMAVGLAGLFIEAHPDPEHAKCDGPSALPLAKLEPFLKQMKAIDDLVKGFEELDTSK | soluble |
